This note sets out measurements from paper PMC10974336, “Characterization of a Novel Hyperthermophilic GH1 β-Glucosidase from Acidilobus sp. and Its Application in the Hydrolysis of Soybean Isoflavone Glycosides” (Microorganisms, 2024).

Substrate in data set [1]: O=[N+]([O-])c1ccc(O[C@@H]2O[C@H](CO)[C@@H](O)[C@H](O)[C@H]2O)cc1
Put plainly: cells, lysate or membranes. It counts as biochemical, Acidilobus sp. 7A. Conditions: crude enzyme, mutant BglAcN, 30 bp deletion, printed as nine residues (…) at positions 298 to 307, pH 5.0.

Substrate in the data set “purified protein”: O=[N+]([O-])c1ccc(O[C@@H]2O[C@H](CO)[C@@H](O)[C@H](O)[C@H]2O)cc1
Briefly: purified protein. It counts as biochemical, Acidilobus sp. 7A. The conditions noted are these: pH 5.0 sodium citrate, 100 °C, pNPG 0.2 to 2 mM.

B1: BglAc (Acidilobus sp. 7A; DEL298-307) (protein)
chain: MTVSFPKGFLFGWSQAGFQSEMGTPGSEDPNSDWYAWVHDRENIASGLVSGDLPENGPGYWGNYRRFHDAAQAMGLSAARIGVEWSRIFPKPTFDVKVHADVRGEEVASVDVSEQALEQLDRLANREAVNHYREMFSDLRSRGITFILNLYHWPLPLWLHDPIAIRRGNLSAPSGWLDVRAVVEFAKFAAYVAWKLDDLVYMYSTMNEPNVVWSHGFTQPKSGFPPGYLCFECSGKAMKNLLQAHARAYDIVKSMTKKPVGVIYATADWTPLTESEADRAAAEAAKAADRWAFFDMLGRLDWIGVNYYSRLVVRAGRSGFQVIPGYGFACEPNSVSPAGRPCSDFGWEFYPEGLYHALKDYWERYHLPLMVTENGAADEGDYLRPYYLVSHIYQVHRAMQEEVNVTGYLHWSLADNYEWASGFGKRFGLLMVDYETKRLYWRPSAFIYREIAKNNAITDEVEHLNRVPPLKPLRK
notes: N-terminal 6xHis tag, pET-30a(+) NdeI/EcoRI, E. coli BL21(DE3), Ni-NTA; residues Glu208, Glu383, Gln19, His152, Asn207, Glu428, Trp429
Usually Km stands for the substrate concentration at which the rate is half of its maximum. Usually Vmax stands for the rate approached at saturating substrate. By kcat is commonly meant the maximal rate divided by the concentration of active sites. Usually kcat/Km stands for the turnover number divided by the Michaelis constant. Consider B1, for which, in data set [1], the Km is reported as 8.58 mM, the Vmax was determined as 288 µmol/min/mg, the kcat was determined as 260 s⁻¹ and the kcat/Km is 30300 M⁻¹ s⁻¹.

B2: BglAc (Acidilobus sp. 7A) (protein)
chain: MTVSFPKGFLFGWSQAGFQSEMGTPGSEDPNSDWYAWVHDRENIASGLVSGDLPENGPGYWGNYRRFHDAAQAMGLSAARIGVEWSRIFPKPTFDVKVHADVRGEEVASVDVSEQALEQLDRLANREAVNHYREMFSDLRSRGITFILNLYHWPLPLWLHDPIAIRRGNLSAPSGWLDVRAVVEFAKFAAYVAWKLDDLVYMYSTMNEPNVVWSHGFTQPKSGFPPGYLCFECSGKAMKNLLQAHARAYDIVKSMTKKPVGVIYATADWTPLTESEADRAAAEAAKAADRWAFFDMLSKGSPRDDLRGRLDWIGVNYYSRLVVRAGRSGFQVIPGYGFACEPNSVSPAGRPCSDFGWEFYPEGLYHALKDYWERYHLPLMVTENGAADEGDYLRPYYLVSHIYQVHRAMQEEVNVTGYLHWSLADNYEWASGFGKRFGLLMVDYETKRLYWRPSAFIYREIAKNNAITDEVEHLNRVPPLKPLRK
notes: as for B1
On to B2, for which, in the data set “purified protein”, the Km is 3.41 mM, the maximal velocity (Vmax) stood at 474 µmol/min/mg, the kcat turned out to be 418 s⁻¹ and the kcat/Km worked out at 123000 M⁻¹ s⁻¹.
